We go through 6 molecules from PMC3074145 (Nucleic Acids Research, 2010).

For data set [1], the target named is T1, GST-Sld2T84D (Saccharomyces cerevisiae, UniProt P34252 1-453, T84D).
T1 sequence: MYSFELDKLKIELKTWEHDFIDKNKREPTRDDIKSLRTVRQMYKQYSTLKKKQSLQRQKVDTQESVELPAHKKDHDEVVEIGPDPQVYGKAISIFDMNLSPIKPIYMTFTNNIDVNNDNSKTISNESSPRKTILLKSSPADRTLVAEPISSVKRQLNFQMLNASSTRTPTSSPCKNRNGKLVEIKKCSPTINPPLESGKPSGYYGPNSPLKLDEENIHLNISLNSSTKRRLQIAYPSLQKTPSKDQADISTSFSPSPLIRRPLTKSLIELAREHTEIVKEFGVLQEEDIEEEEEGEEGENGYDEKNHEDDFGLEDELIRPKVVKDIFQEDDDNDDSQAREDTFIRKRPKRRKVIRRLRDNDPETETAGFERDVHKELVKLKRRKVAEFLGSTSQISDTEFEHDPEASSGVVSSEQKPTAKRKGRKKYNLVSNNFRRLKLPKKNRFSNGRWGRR
The data set can be described thus: GST pull-down.

A further data set deals with T2, Sld2 (Saccharomyces cerevisiae, UniProt P34252 1-453).
T2 sequence: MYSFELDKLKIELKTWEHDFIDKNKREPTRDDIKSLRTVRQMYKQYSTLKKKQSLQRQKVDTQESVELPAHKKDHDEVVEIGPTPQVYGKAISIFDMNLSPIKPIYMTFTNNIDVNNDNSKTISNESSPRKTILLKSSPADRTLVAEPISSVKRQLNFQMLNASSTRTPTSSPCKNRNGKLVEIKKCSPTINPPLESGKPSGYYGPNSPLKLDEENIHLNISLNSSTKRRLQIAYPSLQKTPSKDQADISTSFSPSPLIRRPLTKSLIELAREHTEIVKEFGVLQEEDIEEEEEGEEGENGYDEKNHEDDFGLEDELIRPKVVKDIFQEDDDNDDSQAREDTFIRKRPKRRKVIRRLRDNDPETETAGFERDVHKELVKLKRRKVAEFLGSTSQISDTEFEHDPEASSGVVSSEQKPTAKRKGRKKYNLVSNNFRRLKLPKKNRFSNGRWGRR
The data set can be described thus: fluorescence anisotropy. In general terms: Polarisation of emitted light reports the rotation of a fluorescent probe.

The target of another data set is T3, Sld2T84D (Saccharomyces cerevisiae, UniProt P34252 1-453, T84D).
T3 sequence: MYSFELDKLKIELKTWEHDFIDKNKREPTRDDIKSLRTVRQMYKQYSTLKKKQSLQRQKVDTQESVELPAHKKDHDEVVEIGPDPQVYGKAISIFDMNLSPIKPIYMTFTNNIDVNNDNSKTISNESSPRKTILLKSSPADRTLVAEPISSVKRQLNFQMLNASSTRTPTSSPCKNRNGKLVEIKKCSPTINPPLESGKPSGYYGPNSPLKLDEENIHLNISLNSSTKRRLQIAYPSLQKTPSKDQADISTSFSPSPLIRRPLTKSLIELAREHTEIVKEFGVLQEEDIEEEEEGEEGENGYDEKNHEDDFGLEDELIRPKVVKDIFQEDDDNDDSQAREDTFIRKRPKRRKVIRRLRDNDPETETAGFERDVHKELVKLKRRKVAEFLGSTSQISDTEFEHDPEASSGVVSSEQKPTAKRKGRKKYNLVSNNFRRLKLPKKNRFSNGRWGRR
The data set can be described thus: fluorescence anisotropy.

Another data set deals with T4, Dpb11;Sld2T84D (Saccharomyces cerevisiae;Saccharomyces …, UniProt P47027;P34252 1-764;1-453, |T84D).
T4 sequence 1: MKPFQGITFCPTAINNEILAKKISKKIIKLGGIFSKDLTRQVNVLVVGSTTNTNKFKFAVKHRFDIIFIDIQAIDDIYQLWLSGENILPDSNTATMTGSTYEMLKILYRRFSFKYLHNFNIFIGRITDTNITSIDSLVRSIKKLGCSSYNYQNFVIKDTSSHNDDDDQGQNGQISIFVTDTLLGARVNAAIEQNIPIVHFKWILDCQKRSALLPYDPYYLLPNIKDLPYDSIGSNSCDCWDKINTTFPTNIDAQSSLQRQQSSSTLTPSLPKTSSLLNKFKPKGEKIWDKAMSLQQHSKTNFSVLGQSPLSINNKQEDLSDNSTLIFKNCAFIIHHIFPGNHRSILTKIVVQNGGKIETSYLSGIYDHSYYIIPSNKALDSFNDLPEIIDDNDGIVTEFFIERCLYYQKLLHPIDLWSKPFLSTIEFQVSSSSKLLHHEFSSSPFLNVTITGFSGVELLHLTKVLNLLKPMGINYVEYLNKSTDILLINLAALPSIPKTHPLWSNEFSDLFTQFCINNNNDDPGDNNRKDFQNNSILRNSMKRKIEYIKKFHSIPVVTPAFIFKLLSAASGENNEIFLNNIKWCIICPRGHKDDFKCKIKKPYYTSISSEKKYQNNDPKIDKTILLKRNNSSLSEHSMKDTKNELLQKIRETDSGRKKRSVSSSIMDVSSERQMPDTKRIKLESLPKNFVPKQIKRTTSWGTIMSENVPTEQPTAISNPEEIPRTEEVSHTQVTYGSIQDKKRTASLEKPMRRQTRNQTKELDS
T4 sequence 2: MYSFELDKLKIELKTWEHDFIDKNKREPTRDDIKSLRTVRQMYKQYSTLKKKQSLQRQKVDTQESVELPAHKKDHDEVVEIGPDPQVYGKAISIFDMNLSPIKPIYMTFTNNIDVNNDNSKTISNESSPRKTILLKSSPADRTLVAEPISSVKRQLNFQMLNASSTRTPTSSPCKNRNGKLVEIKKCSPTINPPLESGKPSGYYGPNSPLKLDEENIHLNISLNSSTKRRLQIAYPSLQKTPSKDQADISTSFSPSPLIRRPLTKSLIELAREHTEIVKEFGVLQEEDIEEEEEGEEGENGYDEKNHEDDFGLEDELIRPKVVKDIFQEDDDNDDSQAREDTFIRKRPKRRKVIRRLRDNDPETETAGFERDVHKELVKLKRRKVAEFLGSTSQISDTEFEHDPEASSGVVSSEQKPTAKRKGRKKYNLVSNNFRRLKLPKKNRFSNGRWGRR
Put plainly: biotin-DNA pull-down.

The target of a further data set is T5, GST–Dpb11 (S. cerevisiae, UniProt P47027 1-764).
T5 sequence (looked up): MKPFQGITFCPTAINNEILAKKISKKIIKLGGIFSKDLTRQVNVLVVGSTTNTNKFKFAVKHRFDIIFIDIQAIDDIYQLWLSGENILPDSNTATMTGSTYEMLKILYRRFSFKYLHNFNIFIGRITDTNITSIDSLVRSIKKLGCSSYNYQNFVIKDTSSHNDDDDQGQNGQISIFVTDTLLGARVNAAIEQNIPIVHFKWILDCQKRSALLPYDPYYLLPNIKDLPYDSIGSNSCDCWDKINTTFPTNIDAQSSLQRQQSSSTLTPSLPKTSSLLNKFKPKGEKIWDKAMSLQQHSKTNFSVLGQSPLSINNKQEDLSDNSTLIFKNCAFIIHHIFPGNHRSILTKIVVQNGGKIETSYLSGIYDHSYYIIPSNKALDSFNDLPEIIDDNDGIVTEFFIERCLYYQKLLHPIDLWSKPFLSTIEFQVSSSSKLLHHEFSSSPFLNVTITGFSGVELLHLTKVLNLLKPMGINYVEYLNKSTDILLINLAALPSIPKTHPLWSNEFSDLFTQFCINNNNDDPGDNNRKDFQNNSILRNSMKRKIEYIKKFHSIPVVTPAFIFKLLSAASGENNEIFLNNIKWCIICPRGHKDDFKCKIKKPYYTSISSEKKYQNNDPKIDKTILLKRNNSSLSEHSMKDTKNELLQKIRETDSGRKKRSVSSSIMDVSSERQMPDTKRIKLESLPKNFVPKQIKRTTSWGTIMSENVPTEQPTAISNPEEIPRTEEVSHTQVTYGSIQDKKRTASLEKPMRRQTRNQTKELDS
The data set can be described thus: pull-down.

Data set [2] concerns the target T1, GST-Sld2T84D. The data set can be described thus: GST pull-down. This is another data set of the same source.

Read-outs that look alike come from different tables or passages of the source.

B1: ARS1-A-C (ssDNA)
DNA: TTCCCTCTTGTTCTTTTCCCGCTTTTCTGTTTCGCTCTTTTCTGCTTGCTTTTCCCCCGGCCTGCCGGCCCGTGCCCCCC
In the case of B1, in the data set with GST-Sld2T84D [1], the binding result is “binds”.

B2: FAM-ssARS1-1 (ssDNA)
DNA: TTACATCTTGTTATTTTACAGATTTTATGTTTAGATCTTTTATGCTTGCTTTTCAAAAGGCCTGCAGGCAAGTGCACAAA
For orientation: Kd means the constant that tells how readily two partners part at equilibrium. With B2, the dissociation constant (Kd) with Sld2 turned out to be 694 ± 50 nM; with Sld2T84D, 179 ± 43 nM.

B3: Biotin-ssARS1-1 (ssDNA)
DNA: TTACATCTTGTTATTTTACAGATTTTATGTTTAGATCTTTTATGCTTGCTTTTCAAAAGGCCTGCAGGCAAGTGCACAAA
With B3, in the data set with Dpb11;Sld2T84D, the binding result is listed as “binds”.

B4: Sld2T84D (radiolabeled, with a PKA sequence at the N-terminus) (natural protein, S. cerevisiae, UniProt P34252 1-453, looked up)
chain: MYSFELDKLKIELKTWEHDFIDKNKREPTRDDIKSLRTVRQMYKQYSTLKKKQSLQRQKVDTQESVELPAHKKDHDEVVEIGPDPQVYGKAISIFDMNLSPIKPIYMTFTNNIDVNNDNSKTISNESSPRKTILLKSSPADRTLVAEPISSVKRQLNFQMLNASSTRTPTSSPCKNRNGKLVEIKKCSPTINPPLESGKPSGYYGPNSPLKLDEENIHLNISLNSSTKRRLQIAYPSLQKTPSKDQADISTSFSPSPLIRRPLTKSLIELAREHTEIVKEFGVLQEEDIEEEEEGEEGENGYDEKNHEDDFGLEDELIRPKVVKDIFQEDDDNDDSQAREDTFIRKRPKRRKVIRRLRDNDPETETAGFERDVHKELVKLKRRKVAEFLGSTSQISDTEFEHDPEASSGVVSSEQKPTAKRKGRKKYNLVSNNFRRLKLPKKNRFSNGRWGRR
modifications: 32P-phosphate on the N-terminal PKA sequence (radiolabeled with PKA and γ-32P-ATP)
Take B4: the “percent of input pulled down (with ssARS1-1 at a ratio of 1.2 ssARS1-1/Sld2T84D)” value in the data set with GST–Dpb11 stood at 35.2%.

B5: ARS1-T-A (ssDNA)
DNA: AAACAACAAGAAAAAAAACAGAAAAAAAGAAAAGAACAAAAAAGCAAGCAAAACAAAAGGCCAGCAGGCAAGAGCACAAA
As to B5, the binding result with GST-Sld2T84D [2] is reported as “no binding”.

B6: ARS1-G-C (ssDNA)
DNA: TTACATCTTGTTATTTTACACATTTTATCTTTACATCTTTTATCCTTCCTTTTCAAAACCCCTCCACCCAACTCCACAAA
Take B6: the binding result with GST-Sld2T84D [1] is reported as “binds”.
